The source of these data is US20060280745A1 (MEDICAL RESEARCH COUNCIL, published 2006).

The target in the experiment is T1, murine PrP^c (mouse, UniProt P04925 23-230).
T1 construct: also called mouse PrP^c; normal cellular prion protein
Nature of the experiment: immunoblot of whole spleen homogenate (FIG. 5). On the technique in general: A western blot detects proteins with antibodies after separation by electrophoresis.

T1 sequence (P04925 23-230 limits assumed): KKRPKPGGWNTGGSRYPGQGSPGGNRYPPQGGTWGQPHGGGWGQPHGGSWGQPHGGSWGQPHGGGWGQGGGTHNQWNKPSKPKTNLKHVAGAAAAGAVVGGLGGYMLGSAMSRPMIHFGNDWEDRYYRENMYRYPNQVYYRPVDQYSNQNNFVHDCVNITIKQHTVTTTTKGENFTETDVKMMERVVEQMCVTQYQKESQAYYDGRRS

B1: ICSM 18 (antibody, V domains shown)
VH: EVQLQQSGPELVKPGSSVKISCKASRNTFTDYNLDWVKQSHGKTLEWIGNVYPNNGVTGYNQKFRGKATLTVDKSSSTAYMELHSLTSEDSAVYYCALYYYDVSYWGQGTLVTVSA
VL: QIVLTQSPAIMSASPGEKVTMTCSASSSVSYMHWYQQKSGTSPKRWIYDTSKLASGVPARFSGSGSGTSYSLTISSMEAEDAATYFCHQWRSNPYTFGGGTKLEIKR
notes: also called biotinylated ICSM 18
On to B1, for which the binding result was “binds”.
